Molecular target: VP3 (capping enzyme) (Rotavirus A, UniProt Q1WK45 1-835)
Assay: BLI

GGCUUUUA (ssRNA) [biotinylated 8-mer ssRNA]
binding result: binds
